Results on 15 molecules are retold here after patent US20160200830A1 (NANJING LEGEND BIOTECH, published 2016).

B1: sdAb A13376 (VHH)
VHH: QVKLEESGGGLVQAGGSLRLSCAASGNVFTIAAMAWYRQAPGKERELVAGITTGGSTNYADSVKGRFTISRDNAQNTMYLQMNSLRPEDTAVYFCNAVTKWAARVGGSAEYEYWGQGTQVTVSS
B2: sdAb A69441 (VHH)
VHH: QVKLEESGGGLVQPGGSLRLSCAASGSIFSIKVMGWYRQAPGKQRELVADITSGGSTDYSDSVKGRFTISRDNAKNTVYLQMNSLKPEDTAVYYCNADLGCSGAGSCPDYWGQGTQVTVSS
B3: sdAb A12659 (VHH)
VHH: EVQLVECGGGLVQAGGSLRLSCVASGSGFGINGVIWYRQAPGKQRELVALIKSDGYTNYRESVKGRFTISRDDARNTVWLQMNALEPEDTGVYYCKTPGVPFGQGTQVTVSS
B4: sdAb A13152 (VHH)
VHH: B3 VHH with E1Q, C7S, S25P, R75K
B5: sdAb A12690 (VHH)
VHH: B3 VHH with E1Q, C7S, A14P, Q44R, R75K
B6: sdAb A12692 (VHH)
VHH: B3 VHH with R75K
B7: sdAb A13355 (VHH)
VHH: B3 VHH with E1Q, Q3K, V5E, C7S, K64R, R75K
B8: sdAb A12666 (VHH)
VHH: B3 VHH with E1Q, Q3K, V5E, C7S, I31V, R75K
B9: sdAb A13154 (VHH)
VHH: B3 VHH with E1Q, C7S, A14P, R75K, N83S
B10: sdAb A69476 (VHH)
VHH: QVKLEESGGGLVQPGGSLRLSCAASGNVFTIDAMGWYRQAPGKEREVVVGMTNGGKTNYADSVKGRFTISRDNAKNTVSLQMNSLKPEDTAVYYCYARSKLIATINNPYDYWGQGTQVTVSS
B11: sdAb A69449 (VHH)
VHH: QVQLVESGGGVVQAGGSLRLSCVASGSVFSIDAMGWYRQAPGNQRELVAAMTNAGSTNYADSVKGRFTISRDNAENTVYLQMNSLKPEDTAVYYCNARSKLIARINNPYEYWGQGTQVTVSS
notes: Llama sdAb, made in E. coli periplasm, His-tagged, for SPR; also called A60449; not shown: C-terminal histidine tag added by vector pSJF2H
B12: sdAb A69433 (VHH)
VHH: QVKLEESGGGLVQAGGSLRLSCVASGNVFGIDAVGWYRQAPGKQRELVAATTTSGSSTNYADSVKGRFTISRDIAKNTVYLQMDSLKPEDTAVYYCYARPKQATLIRDDYWGQGTQVTVSS
notes: Llama sdAb, made in E. coli periplasm, His-tagged, for SPR; not shown: C-terminal histidine tag added by vector pSJF2H
B13: sdAb A69447 (VHH)
VHH: QVKLEESGGGSVQAGGSLRLSCTGSGSIFPLNDMGWYRQAPGKQRELVATITRGGTTNYADSVKGRFTISRDSNAKNTVYLQMNSLKVEDTAVYYCNMDNRVGGSYWGQGTQVTVSS
notes: as for B12
B14: sdAb A60401 (VHH)
VHH: B1 VHH with A23E, A35G, Y37F, V92A, F94S
notes: as for B12
B15: sdAb A60219 (VHH)
VHH: B3 VHH with E1Q, C7S, R75K
notes: Llama sdAb, made in E. coli periplasm, His-tagged, for SPR; also called A602019; not shown: C-terminal histidine tag added by vector pSJF2H

Where a chain is given by its changes, count along the chain named.

T1 sequence (P02787 20-698 limits assumed): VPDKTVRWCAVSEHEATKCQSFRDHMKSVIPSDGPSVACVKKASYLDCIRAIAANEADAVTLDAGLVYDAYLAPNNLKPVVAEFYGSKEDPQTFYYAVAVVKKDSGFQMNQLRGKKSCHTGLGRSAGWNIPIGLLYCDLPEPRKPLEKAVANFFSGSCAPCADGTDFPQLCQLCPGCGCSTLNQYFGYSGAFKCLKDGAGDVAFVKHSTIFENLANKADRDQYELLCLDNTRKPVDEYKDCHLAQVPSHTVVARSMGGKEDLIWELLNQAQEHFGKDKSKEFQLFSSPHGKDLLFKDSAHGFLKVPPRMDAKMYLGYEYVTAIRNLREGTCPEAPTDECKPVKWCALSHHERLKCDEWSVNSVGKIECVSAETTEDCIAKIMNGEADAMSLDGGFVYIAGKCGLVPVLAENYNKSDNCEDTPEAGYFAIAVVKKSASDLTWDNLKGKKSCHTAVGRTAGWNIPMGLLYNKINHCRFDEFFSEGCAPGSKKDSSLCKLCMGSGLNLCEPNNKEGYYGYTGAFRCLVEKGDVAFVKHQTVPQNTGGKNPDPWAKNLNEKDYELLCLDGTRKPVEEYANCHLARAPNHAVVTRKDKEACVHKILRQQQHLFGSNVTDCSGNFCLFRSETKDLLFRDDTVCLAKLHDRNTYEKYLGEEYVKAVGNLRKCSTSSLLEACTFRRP

One assay addresses T1, human transferrin (human, UniProt P02787 20-698).
T1 construct: Immobilized on a CM5 chip by amine coupling (SPR) or coated on a plate (phage ELISA)
Put plainly: phage display panning and phage ELISA. How it is done: The llama immune phage display library was panned against transferrin that was conjugated to M-280 beads (Invitrogen). Approximately 3×10¹¹ phages were added to the beads and incubated at 37° C. for 2 hours for antigen binding. After disposal of unbound phages, the beads were washed six times with phosphate buffered saline supplemented with 0.05% Tween 20 (PBST) for round one, and the washes were increased by one for each additional round. Phages were eluted by 10 min incubation with 100 μl 100 mM triethylamine, and the eluate was subsequently neutralized with 200 μl 1 M Tris-HCl (pH 7.5). Phages were amplified as described above, but on a smaller scale. After two rounds of panning, eluted phages were used to infect exponentially growing E. coli TG1. Individual colonies were used in phage enzyme-linked immunosorbent assay (ELISA).
For phage ELISA, a 96-well microliter plate was coated overnight with 2 μg/ml human transferrin and then blocked with 4% […] phosphate buffered saline (MPBS) for 2 hours at 37° C. Phage from individual clones were pre-blocked with 4% MPBS overnight, added to the pre-blocked wells and incubated for 1 hour. Phage ELISA was performed using the GE Healthcare Detection Module Recombinant Phage Antibody System (GE Healthcare, Uppsala, Sweden) and positive phage clones were sequenced.
B1: the binding result is reported as “binds”.
On the same count and under the same terms, next, B2: “binds”; B3: “binds”; B4: “binds”.
Still for that read-out and setting: next, B5: “binds”.
On the same count and under the same terms, next, B6: “binds”; B7: “binds”.
Consider B8, for which the binding result was “binds”.
On the same count and under the same terms, under B9 stands “binds”; under B10, “binds”.

The next assay has as its target T1, human transferrin. Put plainly: SPR, transferrin immobilized, sdAb as analyte.
The molecule B11 gave a Kd of 2.03 nM, a koff of 0.000695 s⁻¹ and a kon of 342000 M⁻¹ s⁻¹.
The like results for B12 were, in that order, 5.76 nM, 0.000642 s⁻¹ and 111000 M⁻¹ s⁻¹.
Turning to B13, binding was characterised by a dissociation constant (Kd) of 1.03 nM, the koff amounted to 0.000209 s⁻¹ and the kon worked out at 203000 M⁻¹ s⁻¹.

In the next assay the target is monkey transferrin (monkey). The assay is described as follows: SPR, transferrin immobilized, sdAb as analyte.
For the molecule B11, binding was characterised by a dissociation constant (Kd) of 1.12 nM, the koff turned out to be 0.000529 s⁻¹ and the kon was determined as 471000 M⁻¹ s⁻¹.
For B12, in that order: 2.4 nM, 0.000593 s⁻¹ and 247000 M⁻¹ s⁻¹.
For B13, in that order: 0.25 nM, 7.58e-05 s⁻¹ and 304000 M⁻¹ s⁻¹.

In another assay the target is T1, human transferrin. Put plainly: SPR, Biacore T200, transferrin immobilized on CM5 chip, sdAb as analyte. How it is done:
Experiments were performed using a BIAcore T200 optical sensor platform and research grade CM5 sensor chips (GE Healthcare). Human transferrin was immobilized on the sensor chip surface by standard amine coupling. All experiments were carried out in HEPES buffer [10 mM HEPES (pH 7.4), 150 mM NaCl, 3.4 mM EDTA, 0.005% Tween 20] at 25° C. Antibodies were injected at serial dilutions ranging from 0.25 nM to 16 nM at a flow rate of 30 μl/min unless otherwise indicated. The amount of bound analyte after subtraction from the blank control surface is shown as relative response units (RU). The double referenced sensorgrams from each injection series were analyzed for binding kinetics using BIA evaluation software (GE Healthcare). Dissociation constants (KDs) were calculated from the on- and off-rates (kₒₙ and koff, respectively), as determined by global fitting of the experimental data to a 1:1 Langmuir binding model (Chi²<1).
For the molecule B14, the Kd is 0.0671 nM, the off-rate (koff) amounted to 6.22e-05 s⁻¹ and the kon worked out at 927000 M⁻¹ s⁻¹.
For B15, in that order: 0.0131 nM, 0.000674 s⁻¹ and 5.14e+07 M⁻¹ s⁻¹.
